Measurements published in PMC8003416, “Modulation of Human Phenylalanine Hydroxylase by 3-Hydroxyquinolin-2(1H)-One Derivatives” (Biomolecules, 2021).

Target: the molecule itself
Experiment: SEC; HiLoad Superdex 200 HR column (1.6 x 60 cm), 20 mM Na-HEPES, 200 mM NaCl, pH 7.0, 0.7 mL/min, 4 °C; preparative isolation of the oligomeric form after affinity purification

B1: MBP-FXa-hPAH-RD^1–120 (N-terminal regulatory domain of human phenylalanine hydroxylase fused to maltose binding protein) (domain or fragment, UniProt P00439 1-120, looked up)
chain: MSTAVLENPGLGRKLSDFGQETSYIEDNCNQNGAISLIFSLKEEVGALAKVLRLFEENDVNLTHIESRPSRLKKDEYEFFTHLDKRSLPALTNIIKILRHDIGATVHELSRDKKKDTVPW
notes: human phenylalanine hydroxylase, N-terminal regulatory domain, amino acids 1-120; The fusion is about 53 kDa; also called MBP-FXa-hPAH-RD^1–120 fusion protein; dimeric MBP-FXa-hPAH-RD^1–120; source: E. coli TB1, purified (amylose resin, then SEC to isolate dimers); not shown: MBP, N-terminal, kept
- stoichiometry N: 2
